We go through two molecules from paper PMC8240387 (2021).

One test has as its target soluble FcγRIIIa (UniProt P08637 17-208). Put plainly: SPR.
For test [1], the target named is recombinant, soluble HIV-1 UG37 gp140 (HIV-1 clade A strain 92UG037). As to the kind of experiment: SPR.

Chain of soluble FcγRIIIa (P08637 17-208): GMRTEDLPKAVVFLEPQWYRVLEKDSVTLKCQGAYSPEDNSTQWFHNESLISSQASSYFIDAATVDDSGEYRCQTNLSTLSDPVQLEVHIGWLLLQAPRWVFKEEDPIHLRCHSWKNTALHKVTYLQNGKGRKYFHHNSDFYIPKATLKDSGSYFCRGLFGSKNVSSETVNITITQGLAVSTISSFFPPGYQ

B1: Mammalian cell-expressed N6 (mN6), broadly neutralising anti-HIV monoclonal antibody N6 expressed in HEK-293T cells (antibody)
chain 1: RAHLVQSGTAMKKPGASVRVSCQTSGYTFTAHILFWFRQAPGRGLEWVGWIKPQYGAVNFGGGFRDRVTLTRDVYREIAYMDIRGLKPDDTAVYYCARDRSYGDSSWALDAWGQGTTVVVSA
chain 2: YIHVTQSPSSLSVSIGDRVTINCQTSQGVGSDLHWYQHKPGRAPKLLIHHTSSVEDGVPSRFSGSGFHTSFNLTISDLQADDIATYYCQVLQFFGRGSRLHIK
modifications: N-glycosylated (size shift on PNGaseF digestion) | N-glycosylated (size shift on PNGaseF digestion)
With B1, the koff with soluble FcγRIIIa was determined as 0.17 s⁻¹; in test [1], 0.000189 s⁻¹.

B2: Plant-expressed N6 (pN6), broadly neutralising anti-HIV monoclonal antibody N6 expressed in glycoengineered ΔXF N. benthamiana (antibody)
chain 1: RAHLVQSGTAMKKPGASVRVSCQTSGYTFTAHILFWFRQAPGRGLEWVGWIKPQYGAVNFGGGFRDRVTLTRDVYREIAYMDIRGLKPDDTAVYYCARDRSYGDSSWALDAWGQGTTVVVSA
chain 2: YIHVTQSPSSLSVSIGDRVTINCQTSQGVGSDLHWYQHKPGRAPKLLIHHTSSVEDGVPSRFSGSGFHTSFNLTISDLQADDIATYYCQVLQFFGRGSRLHIK
modifications: N-glycosylated: GnGn 81.67%, fucosylated 0.69%, no xylosylation, 6.48% non-glycosylated | N-glycosylated: mature complex-type glycans, α(1,3)-fucose 20.93%, no xylosylation, no high mannose …
Turning to B2, the koff with soluble FcγRIIIa stood at 0.016 s⁻¹; in test [1] it was 0.000115 s⁻¹.
